This note sets out measurements from US9433687B2, “Anti-Notch3 antibodies and antibody-drug conjugates” (Pfizer Inc., priority 2012, dated 2016).

Values joined by “and” are separate entries in the source; they are usually repeats but may differ in a detail not shown here. Equal values may be shown once.

Test [1] concerns the target T1, cell surface Notch3 on OVCAR3 cells (Homo sapiens, UniProt Q9UM47).
T1 construct: Notch3 endogenously expressing cells MDA-MB-468, HCC2429 and OVCAR3; endogenous in cells; host or cells: OVCAR3
In words: Cell-based ELISA, OVCAR3 cells. The conditions noted are these: Table 29; LB = lacked binding. A general note: ELISA stands for enzyme-linked immunosorbent assay.

The test system of a further test is HCC2429 (lung cancer). The experiment in a line: In vitro cytotoxicity (MTS), HCC2429. Type of test: cell-based, human. The conditions noted are these: HCC2429; data not shown. Summed up: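 Cells with endogenous Notch3 cultured four days with increasing concentrations of anti-Notch3 ADCs (chimeric or humanized antibodies with various linker-payloads, including cysteine-mutant conjugates); non-targeted ADCs served as specificity controls. Viability by MTS; IC50 from logistic non-linear regression, expressed as ng Ab/mL, with DAR given.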

The target of test [2] is T2, full-length human Notch3 expressed on the cell surface of U2OS/hNotch3 cells (Homo sapiens, UniProt Q9UM47).
T2 construct: U-2 OS cells stably over-expressing human or mouse full length Notch3 protein on cell surface; expressed in transfected cells; host or cells: U-2 OS (human osteosarcoma)
In words: Cell-based ELISA, U2OS/hNotch3 cells. The conditions noted are these: Table 29; two value columns; LB = lacked binding. As for the experimental part:
Humanized hu28 and hu75, and rat-human chimeric, ch28 and ch75, anti-Notch3 antibodies were screened for cell surface Notch3 binding in a cell-based ELISA. U-2 OS cells stably over-expressing human or mouse full length Notch3 protein on cell surface (hereinafter U2OS/hNotch3 and U2OS/mNotch3, respectively) were plated at 50,000 cells/well in 96 well plates (white opaque, BD/VWR) the day before ELISA assay. On the day of the ELISA, culture media was removed from wells and serially diluted (1:3 in blocking buffer) antibody solutions were applied to the plate. Plates were incubated at room temperature for 2 hours before being washed with PBS-Mg/Ca. HRP-conjugated secondary antibody was then applied and incubated with cells for 1 hour as described above for recombinant protein ELISA. Plates were washed with PBS-Mg/Ca before being developed with Pico-Chemiluminescent developing kit (Thermal Scientific), and chemiluminescence measurements were performed per manufacturer's instructions. Data plotting and analyses were performed with Microsoft Excel and Graphpad-Prism software.
Unconjugated anti-Notch3 antibodies, anti-Notch3 ADCs and a negative control antibody (huNeg8.8) were screened for cell surface binding activity to Notch3 expressing cell lines in a cell-based ELISA. […]

T2 sequence (Q9UM47 40-2321): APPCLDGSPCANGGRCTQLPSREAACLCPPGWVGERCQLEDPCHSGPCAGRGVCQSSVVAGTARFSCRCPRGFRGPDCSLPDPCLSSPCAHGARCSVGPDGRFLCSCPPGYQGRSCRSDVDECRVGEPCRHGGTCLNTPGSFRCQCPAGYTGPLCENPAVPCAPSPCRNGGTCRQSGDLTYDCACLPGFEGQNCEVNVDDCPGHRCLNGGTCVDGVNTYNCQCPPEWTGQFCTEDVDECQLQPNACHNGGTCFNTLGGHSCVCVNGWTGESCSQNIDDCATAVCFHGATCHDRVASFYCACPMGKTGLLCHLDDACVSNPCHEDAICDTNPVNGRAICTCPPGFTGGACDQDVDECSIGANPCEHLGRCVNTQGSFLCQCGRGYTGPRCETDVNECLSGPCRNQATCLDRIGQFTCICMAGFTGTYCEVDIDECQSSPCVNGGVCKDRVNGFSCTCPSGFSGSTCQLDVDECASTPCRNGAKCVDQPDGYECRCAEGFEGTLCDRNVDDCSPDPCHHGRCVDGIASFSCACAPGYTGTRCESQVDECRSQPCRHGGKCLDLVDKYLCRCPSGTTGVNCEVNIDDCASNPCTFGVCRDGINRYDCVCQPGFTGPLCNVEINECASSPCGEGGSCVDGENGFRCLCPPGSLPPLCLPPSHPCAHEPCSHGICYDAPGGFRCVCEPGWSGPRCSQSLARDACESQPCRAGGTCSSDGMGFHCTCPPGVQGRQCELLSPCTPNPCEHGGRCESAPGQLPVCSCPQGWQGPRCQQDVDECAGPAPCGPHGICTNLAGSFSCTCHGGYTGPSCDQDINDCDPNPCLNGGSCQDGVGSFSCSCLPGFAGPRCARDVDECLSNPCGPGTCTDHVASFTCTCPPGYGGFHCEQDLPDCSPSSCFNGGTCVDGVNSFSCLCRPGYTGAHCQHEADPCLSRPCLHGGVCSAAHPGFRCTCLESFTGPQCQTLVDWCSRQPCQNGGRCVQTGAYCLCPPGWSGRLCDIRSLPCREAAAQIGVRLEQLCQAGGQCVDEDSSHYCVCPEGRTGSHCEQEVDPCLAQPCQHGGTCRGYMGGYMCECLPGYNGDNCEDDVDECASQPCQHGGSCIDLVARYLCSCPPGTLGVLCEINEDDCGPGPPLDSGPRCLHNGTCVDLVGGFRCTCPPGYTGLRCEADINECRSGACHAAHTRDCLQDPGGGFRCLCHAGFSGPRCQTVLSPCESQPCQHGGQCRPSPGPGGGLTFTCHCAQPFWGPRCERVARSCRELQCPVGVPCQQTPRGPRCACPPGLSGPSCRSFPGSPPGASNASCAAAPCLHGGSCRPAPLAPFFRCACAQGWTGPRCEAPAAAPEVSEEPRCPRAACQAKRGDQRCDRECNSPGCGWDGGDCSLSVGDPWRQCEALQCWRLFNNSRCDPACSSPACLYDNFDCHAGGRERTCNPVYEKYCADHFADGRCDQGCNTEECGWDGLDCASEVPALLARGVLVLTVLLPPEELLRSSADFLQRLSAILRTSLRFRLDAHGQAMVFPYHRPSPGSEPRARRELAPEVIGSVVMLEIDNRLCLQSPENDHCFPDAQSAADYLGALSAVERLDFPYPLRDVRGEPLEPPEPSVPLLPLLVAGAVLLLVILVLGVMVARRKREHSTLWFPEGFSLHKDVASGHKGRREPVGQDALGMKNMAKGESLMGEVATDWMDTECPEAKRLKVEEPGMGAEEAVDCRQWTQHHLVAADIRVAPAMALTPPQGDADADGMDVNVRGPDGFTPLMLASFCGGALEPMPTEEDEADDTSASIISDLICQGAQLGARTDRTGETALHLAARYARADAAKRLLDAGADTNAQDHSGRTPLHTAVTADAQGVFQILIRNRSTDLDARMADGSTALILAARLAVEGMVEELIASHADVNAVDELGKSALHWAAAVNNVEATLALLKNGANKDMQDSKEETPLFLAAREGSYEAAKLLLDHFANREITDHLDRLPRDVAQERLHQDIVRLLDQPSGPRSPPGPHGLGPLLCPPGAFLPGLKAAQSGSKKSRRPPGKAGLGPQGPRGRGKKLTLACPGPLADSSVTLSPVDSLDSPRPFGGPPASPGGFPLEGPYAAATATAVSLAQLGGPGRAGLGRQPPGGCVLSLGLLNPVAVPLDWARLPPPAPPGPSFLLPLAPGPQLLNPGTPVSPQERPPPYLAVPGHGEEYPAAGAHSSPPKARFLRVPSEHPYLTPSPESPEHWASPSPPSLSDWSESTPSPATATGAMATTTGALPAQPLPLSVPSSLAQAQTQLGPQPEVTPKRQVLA
T1 sequence (Q9UM47 40-2321): as above

B1: hu28 VH1.0/VL1.0: humanized r28 variant VH1.0/VL1.0, anti-Notch3 antibody (VH SEQ ID NO: 13, VL SEQ ID NO: 25) (antibody, V domains shown)
VH: EVQLVESGGGLVQPGGSLRLSCAASGFTFRDYGMTWVRQAPGKGLEWVAYISSGSNYIYYAEAVKGRFTISRDNAKNSLYLQMNSLRAEDTAVYYCARRGPFVLDAWGQGTLVTVSS
VL: DIQMTQSPSSLSASVGDRVTITCKASQSINRYLHWYQQKPGKAPKLLIYNANGLQTGVPSRFSGSGSGTDFTLTISSLQPEDFATYYCLQHNTWPDTFGGGTKVEIK
For orientation: EC50 means the concentration at which the effect is half-maximal. A lower EC50 goes with a more potent agent. On to B1, for which the half-maximal effective concentration (EC50) in test [1] is 0.46 nM; in test [2] it was 0.3 nM and 0.26 nM. In the test on HCC2429 (lung cancer), the “effect of unconjugated antibody on viability” value is reported as “did not affect the viability”.
